Assay results taken from PMC5512577, “PDE6δ-mediated sorting of INPP5E into the cilium is determined by cargo-carrier affinity” (Nature Communications, 2016).
Where two headings read alike, the source gives them in different places.

Legend:
GST-PDE6δ = GST-PDE6δ pull-down and release by Arl2/Arl3 from IMCD3 lysates; type: binding; details: 20 μM GST-PDE6δ on GSH-beads, 20 μM Arl2 or Arl3, 1 h 4 °C, anti-GFP immunoblot
Method: Figure 5 INPP5E ciliary enrichment is dependent on high affinity to PDE6δ. […] White bar indicates 5 μm. (b) Bar chart showing ratio of GFP intensity in cilia to the total GFP intensity, indicating the enrichment of GFP-tagged protein in cilia. […] Error bars indicate s.d., n≥35 (P<0.05; Student’s t-test). […] Formed complexes in the pulldown experiment were incubated with Arl2 or Arl3 as indicated. The amount of GFP-tagged interacting proteins bound to GST-PDE6δ was detected by immunoblotting with an antibody against GFP.
IMCD3 cells stably expressing GFP-INPP5E(WT) or GFP-INPP5E(KS) were lysed in lysis buffer containing 75 mM Hepes pH 7.5, 150 mM KCl, 1.5 mM EGTA, 1.5 mM MgCl2, 15% glycerol, 0.2% NP-40 and one protease inhibitor cocktail tablet (Roche). Cell lysates were cleared and supernatants were incubated for 1 h at 4 °C with 100 μl GSH-beads conjugated with 20 μM GST-PDE6δ. For the release assay, 20 μM of either Arl2 or Arl3 were added to the previous mixture and incubated for further 1 h at 4 °C. After 5 times washing with the lysis buffer, the complexes were analysed by western blotting using anti-GFP antibody (1:500; Santa Cruz Biotechnology sc-9996) and anti GST (1:5,000; home source). Full scans of western blots are provided in Supplementary Fig. 6.

PDE6δ = assay: Stopped-flow fluorescence polarization kinetics of mantGppNHp-loaded Arl proteins with PDE6δ; type: binding; details: for association rate constant kon with PDE6δ: 0.2 μM mantGppNHp-loaded Arl protein, increasing PDE6δ; for association rate constant kon with PDE6δ / dissociation rate constant koff from PDE6δ: 20 °C; for association rate constant kon with PDE6δ / dissociation rate constant koff from PDE6δ / Kd: n=4; for dissociation rate constant koff from PDE6δ: 2 μM PDE6δ with 0.2 μM mantGppNHp-loaded Arl protein, 200-fold excess unlabelled Arl protein; for Kd: calculated from kinetic constants, ± s.d., read-out: equilibrium dissociation constant Kd with PDE6δ (Kd=koff/kon)
Method: Previously we have shown that the N-terminal helix of Arl3 is important to release myristoylated cargo from a complex with the shuttle factor UNC119 (ref. [30]). To find out whether the N-terminus of Arl3 and/or Arl2 has a similar if any role in the interaction with PDE6δ, fluorescence polarization measurements using full-length Arl3 (Arl3^fl) or an N-terminal truncated form (Arl3^ΔN) were performed. […] To investigate the role of the N-terminal helix of Arl3 in the release mechanism, we measured association and dissociation rate constants to determine the affinity of PDE6δ towards Arl2 and Arl3 in both full-length and N-terminal truncated forms. Association rate constants between the four proteins Arl3^fl, Arl3^ΔN, Arl2^fl and Arl2^ΔN are rather similar although association is almost twice as fast for full-length Arl3 as compared with Arl2 (Fig. 3a,b). […] The Kd values for Arl2^fl and Arl3^fl differ from previously determined values, likely because of the different techniques used.
Figure 3 Contribution of the N-terminal helix of Arl3 to the binding affinity with PDE6δ. (a) Stopped-flow fluorescence polarization kinetic measurements of the association of 0.2 μM mantGppNHp loaded Arl proteins with increasing concentrations of PDE6δ. The observed pseudo-first order rate constants (kobs) are plotted against PDE6δ concentration. (b) Bar charts of the association rate constants (kon) determined in a. (c,d) Stopped-flow fluorescence polarization kinetic experiments where complexes of 2 μM PDE6δ with 0.2 μM of full-length (Arl^fl) or N-terminally deleted (Arl^ΔN) mantGppNHp loaded Arl proteins as indicated were mixed with 200-fold excess of unlabelled Arl proteins to determine koff. (e) Bar charts of the dissociation rate constants (koff) from experiments in c,d. (f) Bar charts of the equilibrium dissociation constants (Kd) of complexes between PDE6δ and Arl proteins as determined from the kinetic constants in c,e. Error bars indicate s.d., n=4. TEXT PRINTED IN THE PICTURE: (b) Arl3^fl: kon (μM^-1s^-1): 5.97 | (b) Arl3^ΔN: kon (μM^-1s^-1): 4.25 | (b) Arl2^fl: kon (μM^-1s^-1): 2.25 | (b) Arl2^ΔN: kon (μM^-1s^-1): 3.09 | (e) Arl3^fl: koff (s^-1): 0.035 | (e) Arl3^ΔN: koff (s^-1): 0.92 | (e) Arl2^fl: koff (s^-1): 0.33 | (e) Arl2^ΔN: koff (s^-1): 0.98 | (f) Arl3^fl: kd (nM): 5.84 | (f) Arl3^ΔN: kd (nM): 217 | (f) Arl2^fl: kd (nM): 149 | (f) Arl2^ΔN: kd (nM): 319
All fluorescence polarization measurements were performed at 20 °C in a buffer containing 25 mM Tris-HCl (pH 7.5), 50 mM NaCl and 3 mM DTE. For the titration measurement, data were recorded with Fluoromax-4 spectrophotometer (HORIBA Jobin Yvon, Munich, Germany) with excitation and emission wavelengths at 530 and 580 nm for TAMRA-labelled INPP5E peptide and at 495 and 520 nm for fluorescein-labelled Rheb peptide. The kinetic measurements were monitored by a stopped-flow apparatus (Applied Photophysics) in the polarization mode using an excitation wavelength of 366 nm and filter with 420 nm cutoff for mantGppNHp bound Arl protein, excitation wavelength of 495 nm and filter with 520 nm cutoff for fluorescein-labelled Rheb peptide and excitation wavelength of 530 nm and filter with 570 nm cutoff for TAMRA-labelled INPP5E peptide. Data analysis was done with GraFit 5.0 program (Erithracus Software). Concentrations used for each experiment are indicated in the corresponding figure legend.

| Molecule | release from GST-PDE6δ by Arl2·GppNHp / Arl3·GppNHp (GST-PDE6δ) | difference in koff / residence time with PDE6δ, full-length versus N-terminally deleted form (PDE6δ) | association rate constant kon with PDE6δ (PDE6δ) | association rate constant kon with PDE6δ (PDE6δ; listed as Arl2^ΔN) | dissociation rate constant koff from PDE6δ (PDE6δ) | dissociation rate constant koff from PDE6δ (PDE6δ; listed as Arl2^ΔN) | Kd (PDE6δ; listed as Arl2^ΔN) | Kd (PDE6δ) |
| --- | --- | --- | --- | --- | --- | --- | --- | --- |
| INPP5E(KS) mutant: GFP-tagged INPP5E S641K/V643S protein stably expressed in IMCD3 cells (protein, left off: LAP tag (GFP-TEV-site-S-peptide), N-terminal, kept, GFP-tagged INPP5E S641K/V643S protein stably expressed in IMCD3 cells) MPSKSACLRHTEAPGQLEGRMLQGQPPNTEKKLIPTPGFLPASDSQGSETNPMPPFSIPAKTSNQNPQTKANLITPQPPIRPKLERTLSLDDKGWRRRRFRGSQEDLTVQNGASPCRGSLQDSVAQSPAYSRPLPCLSTSLQEIPKSRRATGSEGGSPSLWSDCLSGMISTSLDLLHRDAASGGPPSRLASLHASHTPPAMDLSIASSSLRTANKVDPEHTDYKLRMQTRLVRAHSNLGPSRPRSPLAGDDHSIHSARSFSLLAPIRTKDIRSRSYLEGSLLASGALLGAEELARYFPDRNMALFVATWNMQGQKELPASLDEFLLPTEADYTQDLYVIGIQEGCSDRREWETRLQETLGPQYVLLSSAAHGVLYMSLFIRRDLIWFCSEVEYSTVTTRIVSQIKTKGALGVSFTFFGTSFLFITSHFTSGDGKVAERLLDYSRTIQALALPRNVPDTNPYRSSAGDVTTRFDEVFWFGDFNFRLSGGRVAVEAFLKQKPEVDVLALLQHDQLTREMKKGSIFRGFEEAEIHFLPSYKFDIGKDTYDSTSKQRTPSYTDRVLYKSRHKGDICPMKYSSCPGIKTSDHRPVYGLFQVKVRPGRDNIPLAAGKFDRELYLIGIKRRISKEIQRQEALKSQSSKASCTVS | can indeed be released by both Arl2·GppNHp and Arl3·GppNHp | – | – | – | – | – | – | – |
| INPP5E(WT): GFP (LAP)-tagged mouse INPP5E stably expressed in IMCD3 cells (protein, left off: LAP tag (GFP-TEV-site-S-peptide), N-terminal, kept, GFP (LAP)-tagged mouse INPP5E stably expressed in IMCD3 cells) MPSKSACLRHTEAPGQLEGRMLQGQPPNTEKKLIPTPGFLPASDSQGSETNPMPPFSIPAKTSNQNPQTKANLITPQPPIRPKLERTLSLDDKGWRRRRFRGSQEDLTVQNGASPCRGSLQDSVAQSPAYSRPLPCLSTSLQEIPKSRRATGSEGGSPSLWSDCLSGMISTSLDLLHRDAASGGPPSRLASLHASHTPPAMDLSIASSSLRTANKVDPEHTDYKLRMQTRLVRAHSNLGPSRPRSPLAGDDHSIHSARSFSLLAPIRTKDIRSRSYLEGSLLASGALLGAEELARYFPDRNMALFVATWNMQGQKELPASLDEFLLPTEADYTQDLYVIGIQEGCSDRREWETRLQETLGPQYVLLSSAAHGVLYMSLFIRRDLIWFCSEVEYSTVTTRIVSQIKTKGALGVSFTFFGTSFLFITSHFTSGDGKVAERLLDYSRTIQALALPRNVPDTNPYRSSAGDVTTRFDEVFWFGDFNFRLSGGRVAVEAFLKQKPEVDVLALLQHDQLTREMKKGSIFRGFEEAEIHFLPSYKFDIGKDTYDSTSKQRTPSYTDRVLYKSRHKGDICPMKYSSCPGIKTSDHRPVYGLFQVKVRPGRDNIPLAAGKFDRELYLIGIKRRISKEIQRQEALKSQSSSAVC | specifically released only by Arl3·GppNHp | – | – | – | – | – | – | – |
| Arl2^fl: full-length Arl2, mantGppNHp loaded (protein, left off: His tag, C-terminal, state not stated, full-length Arl2, mantGppNHp loaded) MGLLTILKKMKQKERELRLLMLGLDNAGKTTILKKFNGEDVDTISPTLGFNIKTLEHRGFKLNIWDVGGQKSLRSYWRNYFESTDGLIWVVDSADRQRMQDCQRELQSLLVEERLAGATLLIFANKQDLPGALSCNAIQEALELDSIRSHHWRIQGCSAVTGEDLLPGIDWLLDDISSRVFTAD | – | threefold | 2.25e+06 M⁻¹ s⁻¹ | 3.09e+06 M⁻¹ s⁻¹ | 0.33 s⁻¹ | 0.98 s⁻¹ | 316 ± 6.3 nM | 149 ± 19 nM |
